Results as given in publication doi:10.1101/2025.07.18.665471 (bioRxiv, 2025).
Where “and” joins values, the source holds several entries; their conditions need not be identical. Equal entries are not always repeated. Where two headings read alike, the source gives them in different places.

Columns and labels:
[1] = target: T1, DNAJC12, wild type, human, full-length (human, UniProt Q9UKB3 1-198); test: SEC
[2] = target: the molecule itself; test: SEC-MALS
[3] = target: T1, DNAJC12, wild type, human, full-length; test: BLI
[4] = target: T1, DNAJC12, wild type, human, full-length; test: BLI; remark: listed apart in the source

T1 sequence (Q9UKB3 whole entry): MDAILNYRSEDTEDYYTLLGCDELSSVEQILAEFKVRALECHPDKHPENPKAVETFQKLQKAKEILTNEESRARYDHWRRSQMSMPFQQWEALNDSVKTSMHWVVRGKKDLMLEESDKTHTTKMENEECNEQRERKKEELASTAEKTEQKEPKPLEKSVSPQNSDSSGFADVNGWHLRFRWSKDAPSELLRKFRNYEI

Row | binding result [1] | Kd [3] | Kd [4] | Binder | stoichiometry N [2]
1 | binds | – | – | PAH-p.R261Q, PKU-associated variant of phenylalanine hydroxylase (enzyme, human) MSTAVLENPGLGRKLSDFGQETSYIEDNCNQNGAISLIFSLKEEVGALAKVLRLFEENDVNLTHIESRPSRLKKDEYEFFTHLDKRSLPALTNIIKILRHDIGATVHELSRDKKKDTVPWFPRTIQELDRFANQILSYGAELDADHPGFKDPVYRARRKQFADIAYNYRHGQPIPRVEYMEEEKKTWGTVFKTLKSLYKTHACYEYNHIFPLLEKYCGFHEDNIPQLEDVSQFLQTCTGFRLRPVAGLLSSRDFLGGLAFQVFHCTQYIRHGSKPMYTPEPDICHELLGHVPLFSDRSFAQFSQEIGLASLGAPDEYIEKLATIYWFTVEFGLCKQGDSIKAYGAGLLSSFGELQYCLSEKPKLLPLELEKTAIQNYTVTEFQPLYYVAESFNDAKEKVRNFAATIPRPFSVRYDPYTQRIEVLDNTQQLKILADSINSEIGILCSALQKIK | –
2 | – | 508 ± 59 nM | 139 ± 19 nM | phenylalanine hydroxylase (PAH), wild type, human (enzyme, UniProt P00439 1-452, looked up, biotin (EZ-Link NHS-PEG4-Biotin), for the BLI only) MSTAVLENPGLGRKLSDFGQETSYIEDNCNQNGAISLIFSLKEEVGALAKVLRLFEENDVNLTHIESRPSRLKKDEYEFFTHLDKRSLPALTNIIKILRHDIGATVHELSRDKKKDTVPWFPRTIQELDRFANQILSYGAELDADHPGFKDPVYRARRKQFADIAYNYRHGQPIPRVEYMEEEKKTWGTVFKTLKSLYKTHACYEYNHIFPLLEKYCGFHEDNIPQLEDVSQFLQTCTGFRLRPVAGLLSSRDFLGGLAFRVFHCTQYIRHGSKPMYTPEPDICHELLGHVPLFSDRSFAQFSQEIGLASLGAPDEYIEKLATIYWFTVEFGLCKQGDSIKAYGAGLLSSFGELQYCLSEKPKLLPLELEKTAIQNYTVTEFQPLYYVAESFNDAKEKVRNFAATIPRPFSVRYDPYTQRIEVLDNTQQLKILADSINSEIGILCSALQKIK | 4 and 8
3 | binds | – | – | MBP-PAH(RD), regulatory domain of PAH (PAH(1-112)) fused to maltose binding protein (domain or fragment, human, UniProt P00439 1-112, looked up) MSTAVLENPGLGRKLSDFGQETSYIEDNCNQNGAISLIFSLKEEVGALAKVLRLFEENDVNLTHIESRPSRLKKDEYEFFTHLDKRSLPALTNIIKILRHDIGATVHELSRD | –
